Source: patent US20200347139A1 (INHIBRX BIOSCIENCES, published 2020)

Experiments:
[1] = target: T1, mFc-CLEC12a-ECD (human); assay: BLI, mFc-CLEC12a-ECD captured on anti-mFc sensors, 100 nM sdAb as first sdAb
T1 construct: It was immobilized on anti-mFc capture sensors for BLI; also called CLEC12a antigen
T1 chain: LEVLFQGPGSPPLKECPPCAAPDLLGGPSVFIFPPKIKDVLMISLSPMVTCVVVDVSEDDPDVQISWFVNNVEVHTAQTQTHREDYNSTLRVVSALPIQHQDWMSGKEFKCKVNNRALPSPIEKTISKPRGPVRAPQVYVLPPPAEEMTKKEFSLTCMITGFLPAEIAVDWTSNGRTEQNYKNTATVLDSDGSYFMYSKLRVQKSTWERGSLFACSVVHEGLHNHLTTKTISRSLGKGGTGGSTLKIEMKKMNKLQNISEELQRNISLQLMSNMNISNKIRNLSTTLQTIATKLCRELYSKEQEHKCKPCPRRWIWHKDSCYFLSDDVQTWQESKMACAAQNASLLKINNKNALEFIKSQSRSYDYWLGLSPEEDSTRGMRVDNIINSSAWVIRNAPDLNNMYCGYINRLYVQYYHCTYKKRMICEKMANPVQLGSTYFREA
Experimental: The epitopes of single domain antibodies (sdAbs) that comprise VHH domains that bind CLEC12a were compared using Bio-Layer Interferometry. 7 μg/mL of mFc-CLEC12a-ECD (SEQ ID NO: 87) was immobilized on anti-mFc coated capture sensors. 100 nM of one sdAb was then loaded onto the CLEC12a antigen and allowed to come to equilibrium. The sensors were then transferred into 100 nM of a second sdAb.

[2] = target: T2, human CLEC12a expressed on transiently transfected HEK 293 cells (human, UniProt Q5QGZ9 1-265); assay: flow cytometry on HEK 293 cells transfected with human CLEC12a; apparent Kd, one-site fit
T2 construct: also called CLL-1; CLL1
T2 sequence: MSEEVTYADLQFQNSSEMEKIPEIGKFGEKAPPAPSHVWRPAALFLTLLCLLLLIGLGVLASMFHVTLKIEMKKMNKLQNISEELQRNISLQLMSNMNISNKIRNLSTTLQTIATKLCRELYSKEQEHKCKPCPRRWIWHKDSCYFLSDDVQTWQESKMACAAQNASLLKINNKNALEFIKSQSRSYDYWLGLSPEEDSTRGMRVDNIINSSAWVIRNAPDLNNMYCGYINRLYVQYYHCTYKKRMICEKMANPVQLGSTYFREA
Experimental: Binding of sdAbs to human CLEC12a was assessed by flow cytometry. […] HEK 293 cells were transiently transfected with a plasmid encoding CLEC12a (UniProt Accession No. Q5QGZ9.3; SEQ ID NO: 1) and used as the positive cell line, and untransfected HEK 293 cells were used as CLEC12a-negative cells. Each cell type was plated at 30,000 cells/well in FACS buffer (PBS 1% BSA, 0.1% NaN₃ pH 7.4) on a 96-well round-bottom plate. The sdAbs were diluted in FACS buffer in a 3-fold, 11 point serial dilution. The sdAb dilutions were added to the plated cells, and assay plates were incubated for 30 minutes at 4° C. After washing twice in 150 μL of FACS buffer, cells in each well were resuspended in 100 μL of 1:2000 Alexa Fluor 647-conjugated Anti-Human IgG secondary diluted in FACS buffer and incubated at 4° C. for 30 minutes. The cells were washed twice more, then bound antibody was detected by flow cytometry.
Flow cytometric analysis was performed on an Intellicyte iQue Plus and fluorescence was plotted as median fluorescence intensity. The apparent affinity (Kd, nM) was determined using one site binding non-linear regression in PRISM graph software.

B1: hzMB11v13 sdAb (VHH hzMB11v13 fused to human IgG1 xELL Fc) (Fc fusion)
chain: EVQLVESGGGEVQPGGSLRLSCAASGFLFSIYDMNWYRQAPGKEREWVAGITNNGYSTAYAESVKGRFTISRDNAKNTIYLQMSSLRAEDTAVYYCHADLTKAYDVEYAWGQGTLVTVDKTHTCPPCPAPGGPSVFLFPPKPKDTLMISRTPEVTCVVVDVSHEDPEVKFNWYVDGVEVHNAKTKPREEQYNSTYRVVSVLTVLHQDWLNGKEYKCKVSNKALPAPIEKTISKAKGQPREPQVYTLPPSRDELTKNQVSLTCLVKGFYPSDIAVEWESNGQPENNYKTTPPVLDSDGSFFLYSKLTVDKSRWQQGNVFSCSVMHEALHNHYTQKSLSLSPGK
notes: Humanized version of MB11; No linker is stated; also called hzMB11v13-IgG1
For B1, the binding result [1] was “binds” and the Kd [2] was 0.3 nM.
